Patent US20050287136A1

Key:
[1] = target: CTLA-4-Ig(G1) (Repligen, Inc.) (UniProt P16410); experiment: IGEN ECL bead assay, CTLA-4-Ig(G1) against B7.2-Ig(G1), antibody 1 ug/ml
[2] = target: CTLA-4-Ig(G1) (Repligen, Inc.) (UniProt P16410); experiment: IGEN ECL bead assay, CTLA-4-Ig(G1) against CD28-Ig(G1), antibody 1 ug/ml

selectivity ratio CTLA4/B7.2 [1]: > 500 :1
selectivity ratio CTLA4/CD28 [2]: > 500 :1
B1: 4.10.2 (antibody, human IgG2, V domains shown)
VH: QVQLVESGGGVVQPGRSLRLSCVASGFIFSSHGIHWVRQAPGKGLEWVAVIWYDGRNKDYADSVKGRFTISRDNSKNTLYLQMNSLRAEDTAVYYCARVAPLGPLDYWGQGTLVTVSS
VL: EFVLTQSPGTLSLSPGERATLSCRASQSISSNFLAWYQQKPGQAPRLLIYRPSSRATGIPDSFSGSGSGTDFTLTISRLEPEDFALYYCQQYGTSPFTFGPGTKVDIK
modifications: chain 1 pos 1: pyroglutamate from Gln (FIG. 9: NH2-Blocked, pQ), written Q
